Data taken from publication PMC5264503, “Structural and biophysical analysis of nuclease protein antibiotics” (Biochemical Journal, 2016).

Key:
[1] = target: wild-type ColE9 (colicin E9) (E. coli) (UniProt P09883); test: stopped-flow fluorescence; wild-type ColE9 under the same conditions (PBS pH 7.4, 25 °C); data not shown
pyocin S2 = pyocin S2 (P. aeruginosa, UniProt Q06584 1-689); test: SAXS; settings: both partners purified
Chain of pyocin S2 (Q06584 whole entry): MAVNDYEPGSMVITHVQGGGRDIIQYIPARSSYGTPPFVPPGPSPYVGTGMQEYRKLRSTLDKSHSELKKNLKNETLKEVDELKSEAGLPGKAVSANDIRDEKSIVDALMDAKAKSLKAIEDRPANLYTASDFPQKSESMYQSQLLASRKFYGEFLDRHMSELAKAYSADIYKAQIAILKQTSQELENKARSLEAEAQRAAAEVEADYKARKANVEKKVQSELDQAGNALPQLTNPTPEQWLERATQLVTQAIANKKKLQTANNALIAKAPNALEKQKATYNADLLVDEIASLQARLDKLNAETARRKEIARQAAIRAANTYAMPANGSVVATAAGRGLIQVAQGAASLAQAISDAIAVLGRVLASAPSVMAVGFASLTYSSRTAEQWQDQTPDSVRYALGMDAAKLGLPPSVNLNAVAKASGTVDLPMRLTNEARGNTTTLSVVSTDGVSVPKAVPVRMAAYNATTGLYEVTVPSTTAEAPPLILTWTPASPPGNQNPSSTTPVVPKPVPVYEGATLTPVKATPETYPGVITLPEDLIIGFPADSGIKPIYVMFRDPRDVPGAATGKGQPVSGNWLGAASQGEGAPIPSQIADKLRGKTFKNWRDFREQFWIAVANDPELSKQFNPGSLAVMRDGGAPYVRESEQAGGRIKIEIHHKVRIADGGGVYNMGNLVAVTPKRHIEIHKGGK

Chain of wild-type ColE9 (colicin E9) (E. coli) (P09883 whole entry): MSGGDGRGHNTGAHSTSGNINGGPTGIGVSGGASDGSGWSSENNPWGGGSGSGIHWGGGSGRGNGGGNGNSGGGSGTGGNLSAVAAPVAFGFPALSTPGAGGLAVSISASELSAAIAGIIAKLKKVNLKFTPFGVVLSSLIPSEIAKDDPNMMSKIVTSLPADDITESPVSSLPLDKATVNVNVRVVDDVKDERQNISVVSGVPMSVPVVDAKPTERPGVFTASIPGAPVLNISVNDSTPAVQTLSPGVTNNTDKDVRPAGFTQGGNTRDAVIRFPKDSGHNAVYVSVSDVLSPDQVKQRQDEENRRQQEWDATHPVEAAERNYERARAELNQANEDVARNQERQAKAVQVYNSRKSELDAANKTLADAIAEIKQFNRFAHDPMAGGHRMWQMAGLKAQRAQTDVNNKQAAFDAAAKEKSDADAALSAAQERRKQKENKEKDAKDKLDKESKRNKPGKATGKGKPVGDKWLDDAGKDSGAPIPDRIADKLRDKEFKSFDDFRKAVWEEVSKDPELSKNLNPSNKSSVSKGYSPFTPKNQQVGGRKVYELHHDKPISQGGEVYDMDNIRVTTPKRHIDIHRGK
Chain of Im9 (immunity protein 9) (P13479 whole entry): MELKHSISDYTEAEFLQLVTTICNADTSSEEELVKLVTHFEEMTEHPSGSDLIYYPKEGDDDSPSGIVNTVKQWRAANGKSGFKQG

Row | Molecule | k1 (bimolecular collision) [1] | k2 app (conformational change) [1] | binding result (pyocin S2)
1 | Im9 (immunity protein 9) (from UniProt P13479 1-86) (natural protein) | 1.28e+08 M⁻¹ s⁻¹ | 2.76 s⁻¹ | 
2 | ImS2 (pyocin S2 immunity protein) (natural protein, not shown: His6, C-terminal, kept) MKSKISEYTEKEFLEFVKDIYTNNKKKFPTEESHIQAVLEFKKLTEHPSGSDLLYYPNENREDSPAGVVKEVKEWRASKGLPGFKAG |  |  | binds
